The results in this text go back to patent US20240350588A1 (SUNSHINE LAKE PHARMA, published 2024).

The target of this experiment is T1, human GFRAL (UniProtKB-Q6UXVO) (human, UniProt Q6UXV0 19-394).
T1 sequence (looked up): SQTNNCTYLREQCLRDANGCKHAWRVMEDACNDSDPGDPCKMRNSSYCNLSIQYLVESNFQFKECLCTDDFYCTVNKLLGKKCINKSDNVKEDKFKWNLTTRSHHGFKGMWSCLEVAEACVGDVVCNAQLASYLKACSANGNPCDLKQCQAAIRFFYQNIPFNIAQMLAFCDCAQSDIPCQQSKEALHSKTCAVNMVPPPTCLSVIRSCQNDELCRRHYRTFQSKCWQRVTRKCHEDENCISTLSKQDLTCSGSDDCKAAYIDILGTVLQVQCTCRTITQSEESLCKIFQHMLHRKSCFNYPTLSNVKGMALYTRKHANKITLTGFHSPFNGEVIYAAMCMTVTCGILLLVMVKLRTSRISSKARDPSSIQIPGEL
The experiment can be described thus: cell-based or functional assay.

Where a chain is given by its changes, count along the chain named.

B1: Fc-GDF15 fusion protein M37 (Fc fusion)
chain: APEAAGGPSVFLFPPKPKDTLMISRTPEVTCVVVDVSQEDPEVQFNWYVDGVEVHNAKTKPREEQFNSTYRVVSVLTVLHQDWLNGKEYKCKVSNKGLPSSIEKTISKAKGQPREPQVYTLPPSQEEMTKNQVSLTCLVKGFYPSDIAVEWESNGQPENNYKTTPPVLDSDGSFFLYSRLTVDKSRWQEGNVFSCSVMHEALHNHYTQESLSLSLGGGGGSGGGGSAPAPAPAPAPAPAPAPAPAPGGGGSGGGGSCRLHTVRASLEDLGWADWVLSPREVQVTMCIGACPSQFRAANMHAQIKTSLHRLKPDTVPAPCCVPASYNPMVLIQKTDTGVSLQTYDDLLAKDCHCI
Consider B1, for which the “Relative activity ratio (native GDF15 EC50: Fc-GDF15 construct EC50), ERK1/2 phosphorylation HTRF in HEK293T cells expressing human GFRAL and RET” value (“Relative activity ratio” below) worked out at 3.17 ratio.

B2: Fc-GDF15 fusion protein M29 (Fc fusion)
chain: APEAAGGPSVFLFPPKPKDTLMISRTPEVTCVVVDVSQEDPEVQFNWYVDGVEVHNAKTKPREEQFNSTYRVVSVLTVLHQDWLNGKEYKCKVSNKGLPSSIEKTISKAKGQPREPQVYTLPPSQEEMTKNQVSLTCLVKGFYPSDIAVEWESNGQPENNYKTTPPVLDSDGSFFLYSRLTVDKSRWQEGNVFSCSVMHEALHNHYTQESLSLSLGGGGGSGGGGSAPAPAPAPAPAPAPAPAPAPGGGGSGGGGSDHCPLGPGRCCRLHTVRASLEDLGWADWVLSPREVQVTMCIGDCPSQFRAANMHAQIKTSLHRLKPDTVPAPCCVPASYNPMVLIQKTDTGVSLQTYDDLLAKDCHCI
With B2, the “Relative activity ratio” value was 1.26 ratio.

B3: Fc-GDF15 fusion protein M51 (Fc fusion)
chain: B2 chain with E209N, D299A
Regarding B3, the “Relative activity ratio” value is 3.16 ratio.

B4: Fc-GDF15 fusion protein M31 (Fc fusion)
chain: B2 chain with D299A, A307E
In the case of B4, the “Relative activity ratio” value amounted to 0.87 ratio.

B5: Fc-GDF15 fusion protein M30 (Fc fusion)
chain: B2 chain with D299A, A306S
With B5, the “Relative activity ratio” value was 1.51 ratio.

B6: Fc-GDF15 fusion protein M36 (Fc fusion)
chain: B2 chain with D299A, K359Q
Consider B6, for which the “Relative activity ratio” value amounted to 0.82 ratio.

B7: Fc-GDF15 fusion protein M5 (Fc fusion)
chain: B2 chain with E209D, D299A
For the molecule B7, the “Relative activity ratio” value amounted to 2.47 ratio.

B8: Fc-GDF15 fusion protein M8 (Fc fusion)
chain: B2 chain with E126K, E209K, D299A
Take B8: the “Relative activity ratio” value was found to be 1.69 ratio.

B9: Fc-GDF15 fusion protein M6 (Fc fusion)
chain: B2 chain with E209Q, D299A
B9: the “Relative activity ratio” value was determined as 2.71 ratio.

B10: Fc-GDF15 fusion protein M7 (Fc fusion)
chain: B2 chain with E209A, D299A
As to B10, the “Relative activity ratio” value was 3.16 ratio.

B11: Fc-GDF15 fusion protein M33 (Fc fusion)
chain: B2 chain with D299A, R319Q
On to B11, for which the “Relative activity ratio” value was determined as 0.84 ratio.

B12: Fc-GDF15 fusion protein M35 (Fc fusion)
chain: B2 chain with D299A, T346E
As for B12, the “Relative activity ratio” value is 0.19 ratio.

B13: Fc-GDF15 fusion protein M34 (Fc fusion)
chain: B2 chain with D299A, A333S
Consider B13, for which the “Relative activity ratio” value worked out at 0.9 ratio.

B14: Fc-GDF15 fusion protein M32 (Fc fusion)
chain: B2 chain with D299A, M309T
Consider B14, for which the “Relative activity ratio” value turned out to be 1.26 ratio.

B15: Fc-GDF15 fusion protein M39 (Fc fusion)
chain: APEAAGGPSVFLFPPKPKDTLMISRTPEVTCVVVDVSQEDPEVQFNWYVDGVEVHNAKTKPREEQFNSTYRVVSVLTVLHQDWLNGKEYKCKVSNKGLPSSIEKTISKAKGQPREPQVYTLPPSQEEMTKNQVSLTCLVKGFYPSDIAVEWESNGQPENNYKTTPPVLDSDGSFFLYSRLTVDKSRWQEGNVFSCSVMHEALHNHYTQQSLSLSLGGGGGSGGGGSAPAPAPAPAPAPAPAPAPAPGGGGSGGGGSGDHCPLGPGRCCRLHTVRASLEDLGWADWVLSPREVQVTMCIGACPSQFRAANMHAQIKTSLHRLKPDTVPAPCCVPASYNPMVLIQKTDTGVSLQTYDDLLAKDCHCI
Regarding B15, the “Relative activity ratio” value stood at 2.62 ratio.

B16: Fc-GDF15 fusion protein M3 (Fc fusion)
chain: B15 chain with Q209E
For B16, the “Relative activity ratio” value is 4.53 ratio.

B17: Fc-GDF15 fusion protein M50 (Fc fusion)
chain: B15 chain with E126Q
As for B17, the “Relative activity ratio” value is 1.5 ratio.

B18: Fc-GDF15 fusion protein M2 (Fc fusion)
chain: APEAAGGPSVFLFPPKPKDTLMISRTPEVTCVVVDVSQEDPEVQFNWYVDGVEVHNAKTKPREEQFNSTYRVVSVLTVLHQDWLNGKEYKCKVSNKGLPSSIEKTISKAKGQPREPQVYTLPPSQEEMTKNQVSLTCLVKGFYPSDIAVEWESNGQPENNYKTTPPVLDSDGSFFLYSRLTVDKSRWQEGNVFSCSVMHEALHNHYTQESLSLSLGGGGGSGGGGSAPAPAPAPAPAPAPAPAPAPGGGGSGGGGSARNGDHCPLGPGRCCRLHTVRASLEDLGWADWVLSPREVQVTMCIGACPSQFRAANMHAQIKTSLHRLKPDTVPAPCCVPASYNPMVLIQKTDTGVSLQTYDDLLAKDCHCI
B18: the “Relative activity ratio” value was 3.27 ratio.
